# Results published in IntAct's records for PubMed 28424519.
# B1: Transcription regulatory protein SNF2 (Saccharomyces cerevisiae), P22082 (parent)
# chain: MNIPQRQFSNEEVNRCYLRWQHLRNEHGMNAPSVPEFIYLTKVLQFAAKQRQELQMQRQQQGISGSQQNIVPNSSDQAELPNNASSHISASASPHLAPNMQLNGNETFSTSAHQSPIMQTQMPLNSNGGNNMLPQRQSSVGSLNATNFSPTPANNGENAAEKPDNSNHNNLNLNNSELQPQNRSLQEHNIQDSNVMPGSQINSPMPQQAQMQQAQFQAQQAQQAQQAQQAQQAQARLQQGRRLPMTMFTAEQSELLKAQITSLKCLVNRKPIPFEFQAVIQKSINHPPDFKRMLLSLSEFARRRQPTDQNNQSNLNGGNNTQQPGTNSHYNNTNTDNVSGLTRNAPLDSKDENFASVSPAGPSSVHNAKNGTLDKNSQTVSGTPITQTESKKEENETISNVAKTAPNSNKTHTEQNNPPKPQKPVPLNVLQDQYKEGIKVVDIDDPDMMVDSFTMPNISHSNIDYQTLLANSDHAKFTIEPGVLPVGIDTHTATDIYQTLIALNLDTTVNDCLDKLLNDECTESTRENALYDYYALQLLPLQKAVRGHVLQFEWHQNSLLTNTHPNFLSKIRNINVQDALLTNQLYKNHELLKLERKKTEAVARLKSMNKSAINQYNRRQDKKNKRLKFGHRLIATHTNLERDEQKRAEKKAKERLQALKANDEEAYIKLLDQTKDTRITHLLRQTNAFLDSLTRAVKDQQKYTKEMIDSHIKEASEEVDDLSMVPKMKDEEYDDDDDNSNVDYYNVAHRIKEDIKKQPSILVGGTLKDYQIKGLQWMVSLFNNHLNGILADEMGLGKTIQTISLLTYLYEMKNIRGPYLVIVPLSTLSNWSSEFAKWAPTLRTISFKGSPNERKAKQAKIRAGEFDVVLTTFEYIIKERALLSKVKWVHMIIDEGHRMKNAQSKLSLTLNTHYHADYRLILTGTPLQNNLPELWALLNFVLPKIFNSVKSFDEWFNTPFANTGGQDKIELSEEETLLVIRRLHKVLRPFLLRRLKKDVEKELPDKVEKVVKCKMSALQQIMYQQMLKYRRLFIGDQNNKKMVGLRGFNNQIMQLKKICNHPFVFEEVEDQINPTRETNDDIWRVAGKFELLDRILPKLKATGHRVLIFFQMTQIMDIMEDFLRYINIKYLRLDGHTKSDERSELLRLFNAPDSEYLCFILSTRAGGLGLNLQTADTVIIFDTDWNPHQDLQAQDRAHRIGQKNEVRILRLITTNSVEEVILERAYKKLDIDGKVIQAGKFDNKSTSEEQEALLRSLLDAEEERRKKRESGVEEEEELKDSEINEILARNDEEMAVLTRMDEDRSKKEEELGVKSRLLEKSELPDIYSRDIGAELKREESESAAVYNGRGARERKTATYNDNMSEEQWLRQFEVSDDEKNDKQARKQRTKKEDKSEAIDGNGEIKGENIDADNDGPRINNISAEDRADTDLAMNDDDFLSKKRKAGRPRGRPKKVKLEGSENSEPPALESSPVTGDNSPSEDFMDIPKPRTAGKTSVKSARTSTRGRGRGRGRGRGRGRGRGRPPKARNGLDYVRTPAAATSPIDIREKVAKQALDLYHFALNYENEAGRKLSDIFLSKPSKALYPDYYMIIKYPVAFDNINTHIETLAYNSLKETLQDFHLIFSNARIYNTEGSVVYEDSLELEKVVTKKYCEIMGDNSQLDFTEFDEQYGTRPLVLPPVVTSSVAESFTDEADSSMTEASV
# Variants of: B1
# Settings: with h4_yeast HHF1, P02309
row,effect of a mutation on the interaction,Variant
1,disrupting interaction,E1069K;D1121K
